Where a chain is given by its changes, count along the chain named. In names and notes the source's numbering stands.
B1: cADO-1593 (Synechococcus elongatus PCC 7942 = FACHB-805) (protein)
chain: MPQLEASLELDFQSESYKDAYSRINAIVIEGEQEAFDNYNRLAEMLPDQRDELHKLAKMEQRHMKGFMACGKNLSVTPDMGFAQKFFERLHENFKAAAAEGKVVTCLLIQSLIIECFAIAAYNIYIPVADAFARKITEGVVRDEYLHRNFGEEWLKANFDASKAELEEANRQNLPLVWLMLNEVADDARELGMERESLVEDFMIAYGEALENIGFTTREIMRMSAYGLAAV
notes: full length, codon-optimized gene in pET-28a, His-tag (nickel column), E. coli BL21(DE3); apo enzyme reconstituted with Fe(II)
B2: cADO-1593 (Synechococcus elongatus PCC 7942 = FACHB-805; A121F) (protein)
chain: B1 chain with A121F
notes: as for B1

Tests used:
[1] = substrate: CCCCCCC=O; experiment: GC headspace quantification of alkane product; type: biochemical, Synechococcus elongatus; conditions: NADH/PMS reducing system, catalase, 80 uM ferrous ammonium sulfate, 100 mM HEPES, 100 mM KCl, pH 7.2, 37 °C
[2] = substrate: CCCCCCCC=O; experiment: GC headspace quantification of alkane product; type: biochemical, Synechococcus elongatus; conditions: NADH/PMS reducing system, catalase, 80 uM ferrous ammonium sulfate, 100 mM HEPES, 100 mM KCl, pH 7.2, 37 °C
[3] = substrate: CCCCCCCCC=O; experiment: GC headspace quantification of alkane product; type: biochemical, Synechococcus elongatus; conditions: NADH/PMS reducing system, catalase, 80 uM ferrous ammonium sulfate, 100 mM HEPES, 100 mM KCl, pH 7.2, 37 °C
purified protein = substrate: CCCCCC=O; experiment: purified protein; conditions: NADH/PMS reducing system, catalase, 80 uM ferrous ammonium sulfate, 100 mM HEPES, 100 mM KCl, pH 7.2, room temperature

| Protein | Km [1] | kcat [1] | kcat/Km [1] | Km [2] | kcat [2] | kcat/Km [2] | Km [3] | kcat [3] | kcat/Km [3] | Km (purified protein) | kcat (purified protein) | kcat/Km (purified protein) |
| --- | --- | --- | --- | --- | --- | --- | --- | --- | --- | --- | --- | --- |
| B1 | 590 ± 70 µM | 0.0132 ± 0.0005 s⁻¹ | 21.7 ± 1.67 M⁻¹ s⁻¹ | 180 ± 30 µM | 0.0233 ± 0.001 s⁻¹ | 130 ± 5 M⁻¹ s⁻¹ | 69 ± 8.7 µM | 0.0102 ± 0.000333 s⁻¹ | 150 ± 8.33 M⁻¹ s⁻¹ | 930 ± 100 µM | 0.03 s⁻¹ | 31.7 M⁻¹ s⁻¹ |
| B2 | 560 ± 60 µM | 0.025 ± 0.00167 s⁻¹ | 45 ± 3.33 M⁻¹ s⁻¹ | 180 ± 36 µM | 0.0163 ± 0.001 s⁻¹ | 90 ± 5 M⁻¹ s⁻¹ | 140 ± 22 µM | 0.0128 ± 0.000667 s⁻¹ | 90 ± 5 M⁻¹ s⁻¹ | 960 ± 50 µM | 0.115 s⁻¹ | 120 M⁻¹ s⁻¹ |
